Measurements: patent US20230257454A1 (STAIDSON BEIJING BIOPHARMACEUTICALS, published 2023)

Columns and labels:
[1] = biological target: T1, human endogenous C5a (human, UniProt P01031 678-751, limits assumed); test: cell-based or functional assay
T1 sequence: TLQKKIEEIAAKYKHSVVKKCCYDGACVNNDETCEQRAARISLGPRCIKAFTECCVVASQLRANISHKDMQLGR

[2] = biological target: T2, C5a-K20A; test: ELISA on the coated C5a protein, antibody titrated, OD410
T2 single chain: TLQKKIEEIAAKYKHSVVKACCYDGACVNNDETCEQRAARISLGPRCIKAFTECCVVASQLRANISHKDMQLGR

[3] = biological target: T3, C5a-Y23A; test: as above
T3 single chain: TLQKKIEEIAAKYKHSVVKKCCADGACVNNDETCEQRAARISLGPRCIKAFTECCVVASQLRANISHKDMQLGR

[4] = biological target: T4, C5a-C27A; test: as above
T4 single chain: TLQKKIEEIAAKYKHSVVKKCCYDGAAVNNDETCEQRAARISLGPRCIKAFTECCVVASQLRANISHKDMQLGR

[5] = biological target: T5, C5a-V28A; test: as above
T5 single chain: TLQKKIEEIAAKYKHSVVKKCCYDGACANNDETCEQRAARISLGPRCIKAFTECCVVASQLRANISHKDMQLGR

[6] = biological target: T6, C5a-V28F; test: as above
T6 single chain: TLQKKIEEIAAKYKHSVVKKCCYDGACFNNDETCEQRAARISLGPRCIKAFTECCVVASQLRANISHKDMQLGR

[7] = biological target: T7, C5a-V28R; test: as above
T7 single chain: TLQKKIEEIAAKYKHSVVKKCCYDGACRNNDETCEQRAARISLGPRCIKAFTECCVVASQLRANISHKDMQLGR

[8] = biological target: T8, C5a-N29A; test: as above
T8 single chain: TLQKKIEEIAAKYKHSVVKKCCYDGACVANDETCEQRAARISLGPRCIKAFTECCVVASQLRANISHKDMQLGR

[9] = biological target: T9, C5a-Y13A; test: as above
T9 single chain: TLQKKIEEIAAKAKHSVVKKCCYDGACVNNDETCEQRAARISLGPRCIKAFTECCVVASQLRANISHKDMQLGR

[10] = biological target: T10, C5a-E35A; test: as above
T10 single chain: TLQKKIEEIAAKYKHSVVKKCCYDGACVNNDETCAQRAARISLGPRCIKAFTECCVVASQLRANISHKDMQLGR

[11] = biological target: T11, C5a-Q36A; test: as above
T11 single chain: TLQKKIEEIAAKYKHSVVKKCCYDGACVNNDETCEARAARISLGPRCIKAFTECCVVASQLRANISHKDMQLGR

[12] = biological target: T12, C5a-R62A; test: as above
T12 single chain: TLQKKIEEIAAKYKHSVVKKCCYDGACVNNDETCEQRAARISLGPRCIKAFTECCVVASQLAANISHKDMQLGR

[13] = biological target: T13, native full-length human complement component C5 (human, UniProt P01031 19-673; P01031 678-1676); test: ELISA, plate coated with human native C5, full-length antibody titrated, OD410
T13 construct: mature; The native protein has two disulfide-linked chains (alpha and beta) made from one precursor; also called human native C5
T13 sequence (P01031 19-673 limits assumed, one chain of several): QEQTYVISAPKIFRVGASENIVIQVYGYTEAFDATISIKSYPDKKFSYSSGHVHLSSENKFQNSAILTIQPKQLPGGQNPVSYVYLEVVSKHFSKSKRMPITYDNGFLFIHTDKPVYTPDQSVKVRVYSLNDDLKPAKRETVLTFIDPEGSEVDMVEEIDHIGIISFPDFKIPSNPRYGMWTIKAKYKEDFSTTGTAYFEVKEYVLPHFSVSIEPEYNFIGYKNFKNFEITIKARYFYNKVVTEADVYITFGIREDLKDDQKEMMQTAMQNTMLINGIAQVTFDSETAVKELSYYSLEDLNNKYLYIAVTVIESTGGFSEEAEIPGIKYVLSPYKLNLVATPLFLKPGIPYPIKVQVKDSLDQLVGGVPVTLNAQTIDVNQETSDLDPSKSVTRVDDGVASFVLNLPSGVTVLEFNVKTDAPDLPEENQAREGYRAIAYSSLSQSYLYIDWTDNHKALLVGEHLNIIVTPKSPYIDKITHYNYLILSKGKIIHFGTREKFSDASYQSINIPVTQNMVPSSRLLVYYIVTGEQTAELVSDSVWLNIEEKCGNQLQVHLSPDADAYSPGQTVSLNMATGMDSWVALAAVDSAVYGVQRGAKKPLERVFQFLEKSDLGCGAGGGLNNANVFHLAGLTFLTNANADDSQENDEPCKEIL

B1: Cab42-IgG1 (antibody, V domains shown)
VH: EMQLVESGGGLVQPGGSLRLSCAASGFTFSDYYMQWVRQAPGKGPEWVGLIRNKAVGETTQYAASVKGRFTISRDDSKNSVYLQMNSLKTEDTAVYYCVSRAGPPGLSWGQGVLVTVSS
VL: DIVMTQSPLSLPVTPGEPASISCRSSQSLLASDAYNYIDWYLQKPGQSPQLLIYGGSNRASGVPDRFSGSGSGTDFTLKISRVEAEDVGVYFCLQHRALPPTFGQGTKLEIK
notes: Full-length human IgG1; It was biotinylated in the peptide-Fc ELISA
eC5a IC50(nM), CD11b up-regulation on human neutrophils in whole blood [1]: 2.05 nM
eC5a+50*C5 IC50(nM), CD11b up-regulation on human neutrophils in whole blood with 50 times more C5 [1]: 31 nM
binding result [2]: binds
binding result [3]: binds
binding result [4]: binds
binding result [5]: binds
binding result [6]: binds
binding result [7]: binds
binding result [8]: binds
binding result [9]: binds
binding result [10]: binds
binding result [11]: binds
binding result [12]: binds
EC50 (read off the curve) [13]: ~10 ng/mL
